Laboratory results as given in patent US20190367619A1 (ARGENX, published 2019).
Where a chain is given by its changes, count along the chain named. Values belong to the binder of their own block, whether it stands above or below them.

Experiments:
[1] = target: T1, TEV-cleaved wild-type recombinant human galectin-10 (soluble, in Fab complexes, or as recombinant galectin-10 … (human, UniProt Q05315 1-142)); assay: cell-based or functional assay
T1 sequence: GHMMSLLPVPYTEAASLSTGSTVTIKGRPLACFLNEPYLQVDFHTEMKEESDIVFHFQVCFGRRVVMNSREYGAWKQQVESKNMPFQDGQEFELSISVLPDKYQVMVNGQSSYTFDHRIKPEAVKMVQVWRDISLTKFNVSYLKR

[2] = target: T2, human galectin-10-His (recombinant human galectin-10 with TEV-cleavable N-terminal His-tag) (human); assay: SPR Biacore T3000, scFv-hFc captured by anti-human Fc, galectin-10-His as analyte
T2 construct: SEC-MALLS: dimer in solution; also called Gal10-His; humanGal10-His
T2 chain: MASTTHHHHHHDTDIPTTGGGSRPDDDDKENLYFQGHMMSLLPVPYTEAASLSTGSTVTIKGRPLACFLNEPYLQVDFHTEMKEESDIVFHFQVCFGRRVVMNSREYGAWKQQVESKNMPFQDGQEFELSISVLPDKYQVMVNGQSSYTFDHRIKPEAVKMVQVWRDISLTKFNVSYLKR
Description: In order to determine the binding properties (on-rate/off-rate) of the scFv-human Fc panel, their binding capacity to galectin-10 was analyzed on Biacore T3000. For this purpose, a capture approach was set up. A CM5 Chip was coated with polyclonal anti-human Fc at 8000 RU, then a fixed concentration of the scFv-human Fc panel (1.5 μg/mL), diluted in HBS-EP pH7.4, were captured to reach a binding signal around 150 RU. Finally, a serial dilution of galectin-10-His (serial dilution, 1 over 2 from 5 μg/mL, 6 points of dilution) diluted in HBS-EP pH7.4 was injected. Raw data were analyzed via BIA evaluation software with a blank subtraction (4-3). The kd/KD and Rmax of each scFv-human Fc for galectin-10-His was determined using the Fit Kinetics simultaneous ka/kd/Binding with mass transfer/Local Rmax on BIA evaluation software.

[3] = target: T2, human galectin-10-His (recombinant …); assay: ELISA, scFv-hFc on coated galectin-10-His (0.2 ug/mL)
Description: In a similar setup to that used during the initial screening, the relative binding properties of the 12 scFv-human Fc clones were analyzed by ELISA. Briefly, a Maxisorp plate was coated with galectin-10-His at 0.2 μg/mL and blocked with casein, before being incubated with a serial dilution of the scFv-human Fc fusion molecules. After several washing steps, detection of the bound scFv-human Fc was carried out with an anti-human Fc-HRP antibody. Absorbance was measured at 450 nm (reference at 620 nm) with Tecan instrument. Finally, the raw data (OD values) were plotted on GraphPad Prism 7.01. The EC50 value of each compound was calculated with a non-linear regression (log(agonist) vs. response Variable slope (four parameters)).

human galectin-10-His [4] = target: T3, human galectin-10-His (human); assay: ELISA, coated antigen 0.2 ug/mL
T3 construct: The last M of the tag may be Met1 of galectin-10; also called humanGal10-His; hGal10
T3 chain: T2 chain
Description: In a similar setup to that used during the initial screening, the relative binding properties of the 11 new scFv-human Fc clones were analyzed by ELISA. Briefly, a Maxisorp plate was coated overnight with human or cynomolgus WGS or YRT isoforms of galectin-10-His at 0.2 μg/mL and blocked with PBS 1% casein, before being incubated with a serial dilution of the scFv-human Fc fusion molecules (from 100 nM, dilution 1/5, 8 points of dilutions). After several washing steps, detection of the bound scFv-human Fc was carried out with an anti-human Fc-HRP antibody (Jackson ImmunoResearch, Catalog 109-035-008). Absorbance was measured at 450 nm (reference at 620 nm) with Tecan instrument. Finally, the raw data (OD values) were plotted on GraphPad Prism 7.01. The EC50 values of each clone, calculated with a non-linear regression (log(agonist) vs. response Variable slope (four parameters)) are reported in Table 19 below. As a positive control, clone 6F05 from the previous galectin-10 antibody panel was included.

[5] = target: T4, recombinant human galectin-10, TEV-cleaved (human, UniProt Q05315 1-142); assay: cell-based or functional assay
T4 sequence: T1 sequence

human galectin-10-His [6] = target: T3, human galectin-10-His; assay: ELISA, galectin-10-His coated at 1 ug/mL, Fab
Description: The binding capacity of the lead anti-galectin-10 Fabs was tested by binding ELISA. Briefly, a Maxisorp plate was coated overnight with 1 μg/mL of human galectin-10-His. Then a serial dilution of each clone (from 4 μM, dilution 1/4, 12 points of dilutions) was incubated on coated galectin-10. After several washing steps, detection of the bound Fab was carried out with an anti-human IgG Fab specific-peroxidase. Absorbance was measured at 450 nm (reference at 620 nm) with Tecan instrument.

human galectin-10-His [7] = target: T5, human galectin-10-His (human); assay: ELISA, Gal10-His coated at 1 ug/mL, VHH titrated, anti-Myc-HRP
T5 construct: Whether the last M of the tag is the start Met of galectin-10 is not clear; also called human Gal10-HIS; humanGal10-His
T5 chain: T2 chain
Description: (§1) The binding capacity of the 15 VHH clones was analysed by ELISA. Briefly, a Maxisorp plate was coated overnight with human or cynomolgus WGS or YRT isoforms galectin-10-His at 1 μg/mL and blocked with PBS 1% casein, before being incubated with a serial dilution of the VHH (from 4 μM, dilution 1/3, 12 points of dilutions). […] Absorbance was measured at 450 nm (reference at 620 nm) with Tecan instrument. Finally, the raw data (OD values) were plotted on GraphPad Prism 7.01. […] As a positive control, clone 1D06 from the previous human specific panel was included.

[8] = target: T6, cynomolgus galectin-10-His, WGS isoform (cynomolgus); assay: as above
T6 construct: not shown: His tag
T6 chain: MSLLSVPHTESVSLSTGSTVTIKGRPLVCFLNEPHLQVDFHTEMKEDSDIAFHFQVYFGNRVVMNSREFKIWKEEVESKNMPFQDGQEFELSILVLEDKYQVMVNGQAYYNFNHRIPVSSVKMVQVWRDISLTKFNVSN
Description: as §1

[9] = target: T7, cynomolgus galectin-10-His, YRT isoform (cynomolgus); assay: as above
T7 construct: not shown: His tag
T7 chain: T6 chain with K23E, G24A, L31F, F69Y, K70R, I71T, S92R
Description: as §1

B1: 2B11 scFv-human Fc (Fc fusion)
scFv: QVQLQESGPGLVKPSQTLSLTCTVSGGSITTNYYYWSWIRQPPGKGLEWMGAIAYSGSTYYSPSLKSRTSISRDTSKNQFTLQLSSVTPEDTAVYYCARAPYGISREYDYWGQGTQVTVSSGGGGSGGGGSGGGGSHSAVTQPSAVSVSLGQTARITCQGGKFGRYYASWYQQKPGQAPVLVIYKDSERPSGIPERFSGSSSGDTATLSISGAQAEDEADYFCQSGRSSDNAVFGGGTHLTVL
notes: about 100 kDa on SDS-PAGE; also called 2B11 ScFv-hFc; not shown: CH2-CH3 constant domains of human IgG1 (vector pUPEX50)
100% Solubilization of CLC (Conc uM) [1]: 5.04 µM | Kd [2]: 0.875 nM | koff [2]: 0.018 s⁻¹ | Bmax (OD values) [3]: 2.43 OD | EC50 [3]: 0.08 nM

B2: 2E11 scFv-human Fc (Fc fusion)
scFv: EVQLVESGGGLVQPGGSLRLSCAASGFTFSSYAMSWVRQAPGKGLEWVSPINSGSDSASYVDSVKGRFTISRDNAKNTLYLQMNSLKPEDTAVYYCAKARTSVVAGGMDYWGKGTLVTVSSGGGGSGGGGSGGGGSQSALTQPSAVSVSLGQTARITCQGGKFGSYYVSWYQQKPGQAPVMVIYKDNERPSGIPERFSGSSSGSTSTLTISGAQAEDEGTYYCQSGSSSDNIVFGGGTELTVF
notes: about 100 kDa on SDS-PAGE; also called 2E11 ScFv-hFc; not shown: CH2-CH3 constant domains of human IgG1 (vector pUPEX50)
100% Solubilization of CLC (Conc uM) [1]: 4.36 µM | Kd [2]: 1.16 nM | koff [2]: 0.0111 s⁻¹ | Bmax (OD values) [3]: 1.43 OD | EC50 [3]: 0.14 nM

B3: 2C07 scFv-human Fc (Fc fusion)
scFv: ELQLVESGGGLVQPGGSLRLSCAASGFTFSSYAMSWVRQAPGKGLEWVSNINSGGGSTGYADSVKGRFTISRDNAKNTLYLQMNSLKPEDMAVYYCAKYLRTYYPNAAFGMDYWGKGTLVTVSSGGGGSGGGGSGGGGSQAVLTQPSAVSVSLGQTARITCQGGNFGRYYASWYQQKPGQAPVLVIYRDSERPSGIPERFSGSSSGDTATLTISGAQAEDEADYYCQSGRSSDNAVFGGGTHLTGL
notes: about 100 kDa on SDS-PAGE; also called 2C07 ScFv-hFc; not shown: CH2-CH3 constant domains of human IgG1 (vector pUPEX50)
100% Solubilization of CLC (Conc uM) [1]: 6.86 µM | Kd [2]: 0.677 nM | koff [2]: 0.000259 s⁻¹ | Bmax (OD values) [3]: 2.89 OD | EC50 [3]: 0.05 nM

B9: 4B10 scFv-human Fc (Fc fusion)
scFv: QLQLVESGGGLVQPGGSLRLSCAASGFTFSNYWMYWVRQAPGKGLEWVSAIDVGGGTTDYAGSVKGRFTISRDNTKSTVYLQMNTLKPEDTALYYCLRGGSYYGGMDYWGKGTLVTVSSGGGGSGGGGSGGGGSQSALTQPSAVSVSLGQTARITCQGAKLGRYYGIWYQQKPGQAPVQVIYGDSNRPSGIPERFSGSSSGGTATLTISGAQAEDEADYYCQSYESSTSPVFGGGTHLTVL
notes: about 100 kDa on SDS-PAGE; also called 4B10 ScFv-hFc; not shown: CH2-CH3 constant domains of human IgG1 (vector pUPEX50)
100% Solubilization of CLC (Conc uM) [1]: 6.14 µM | Kd [2]: 1.94 nM | koff [2]: 0.0128 s⁻¹ | Bmax (OD values) [3]: 1.28 OD | EC50 [3]: 0.08 nM

More lines, now with the values ahead:

Bmax (human galectin-10-His [4]): 2.4 OD | EC50 (human galectin-10-His [4]): 0.02 nM
B4: 6F05 scFv-human Fc (Fc fusion)
scFv: QLQLVESGGGLVQPGGSLRLSCAASGFTFSSYAMSWVRQAPGKGLEWVSAINSGGGSTSYADSVKGRFTISRDNAKNTLYLQMNSLKPEDTAVYYCATPGDRLWYYRYDYWGQGTQVTVSSGGGGSGGGGSGGGGSQAGLTQPPSVSGTLGKAVTISCAGTSSDIGYGNYVSWYQQLPGTAPKLLIYKVSRRASGVPDRFSGSKSGNTASLSISGLQSEDEADYYCASYRYRNNVVFGGGTHLTVL
notes: Positive control from the first panel; also called 6F5; not shown: CH2-CH3 constant domains of human IgG1 (pUPEX50 scFv-Fc fusion vector)

50% crystal dissolution (min), 50 uM [5]: 15.1 min | 90% crystal dissolution (min), 50 uM [5]: 54.1 min | Bmax (human galectin-10-His [6]): 0.65 OD | EC50 (human galectin-10-His [6]): 24.4 nM
B5: 7B07 Fab (Fab, V domains shown)
VH: QVQLVESGGGLVQPGGSLRLSCAASGFTFRSYDMSWVRQAPGKGPEWVSAIKNGGGITYYADSVKGRFTISRDNAKNTLYLQMNSLKPEDTAVYYCATTHGIGTLGFGSWGQGTQVTVSS
VL: SYELTQSASVSVALTQTAKITCDGNNIGSKSAQWYQQKPGQAPALVIYADEYRPEGIPERFSGSNSGNTATLIISGAQAEDEADYYCQVWDGSAAVFGRGTHLTVL
notes: Fab with human CH1 (including part of the hinge region) and human lambda constant domain; also called 7B7; 7B07 hFab

100% Solubilization of CLC (Conc uM) [1]: 4.36 µM | Kd [2]: 0.911 nM | koff [2]: 0.0437 s⁻¹ | Bmax (OD values) [3]: 3.03 OD | EC50 [3]: 0.09 nM
B6: 4G05 scFv-human Fc (Fc fusion)
scFv: QLQVVESGGGLVQTGGSLTLSCTTSGFTFSRYWMIWVRQAPGKGLEWVSSIYNDGGNTYYADSVKGRFTISRDNSENTLYLQMNSLKSEDTAVYYCAKLKAAYYGMDYWGKGTLVTVSSGGGGSGGGGSGGGGSSSALTQPSAVSVSLGQTARITCQGANLGRYYGIWYQQKPGQAPVQVIYGDSNRPSGIPERFSGSSSGGTATLTISGAQAEDEADYYCQSYESSTSPVFGGGTHLTVL
notes: about 100 kDa on SDS-PAGE; also called 4G05 ScFv-hFc; not shown: CH2-CH3 constant domains of human IgG1 (vector pUPEX50)

Bmax (OD values) (human galectin-10-His [7]): 1.2 OD | EC50 (human galectin-10-His [7]): 90.7 nM | Bmax (OD values) [8]: 0 OD | binding result [8]: no binding (tested: up to 4 uM VHH) | Bmax (OD values) [9]: 0 OD | binding result [9]: no binding (tested: up to 4 uM VHH)
B7: VHH clone 1D06 (VHH, not shown: large carriers)
VHH: QLQLVESGGGLVQPGGSLRLSCAASENSVSTYAMGWFRQAPGKEREFVAAITRAGGNTYNADSVKGRFTISRDNAENTIYLQMNSLKPEDTAVYSCAAGPRYSTISTMFPYWGQGTQVTVSS
notes: Positive control from the previous human-specific panel; also called 1D6

100% Solubilization of CLC (Conc uM) [1]: 6 µM | Kd [2]: 1.55 nM | koff [2]: 0.00277 s⁻¹ | Bmax (OD values) [3]: 1.3 OD | EC50 [3]: 0.2 nM
B8: 4H10 scFv-human Fc (Fc fusion)
scFv: QVQLVESGGGLVQPGGSLRLSCAASGFTFDDYAMSWVRQAPGKGLEWVSAISWNGGSTYYAESMKGRFTISRDNAKNTLYLQMNSLKSEDAAVYYCAKDLSASGSYYHTFGSWGQGTQVTVSSGGGGSGGGGSGGGGSQAGLTQPPSVAGTLGKTVTISCAGTSSDVGYGDYVSWYQHIPGTAPKLLIYKVKTRASGIPDRFSGSKSGNTASLTISGLQSGDESDYYCASYKNGGTAVFGGGTHLTVL
notes: about 100 kDa on SDS-PAGE; also called 4H10 ScFv-hFc; not shown: CH2-CH3 constant domains of human IgG1 (vector pUPEX50)
